Test results as given in patent US20210147507A1, “METHODS TO AUGMENT OR ALTER SIGNAL TRANSDUCTION” (Bellicum Pharmaceuticals, Inc., priority 2017, published 2021).

Test system: chimeric Caspase-9 polypeptide
Assay: Caspase-9 mutant classes and basal activity (Table 5)
Format: cell-based
Settings: Caspase-9 mutant class; for Basal Activity: basal (ligand-independent) signaling compared with unmodified chimeric Caspase-9

chimeric Caspase-9 polypeptide, sequence (P62942 2-108 F37V limits assumed): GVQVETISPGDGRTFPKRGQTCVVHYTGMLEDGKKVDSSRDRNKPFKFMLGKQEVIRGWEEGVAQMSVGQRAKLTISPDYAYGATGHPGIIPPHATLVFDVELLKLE

Molecule | Basal Activity | Catalytic activity (class 'Catalytically dead')
D327G (protein) GFGDVGALESLRGNADLAYILSMEPCGHCLIINNVNFCRESGLRTRTGSNIDCEKLRRRFSSLHFMVEVKGDLTAKKMVLALLELARQDHGALDCCVVVILSHGCQASHLQFPGAVYGTDGCPVSVEKIVNIFNGTSCPSLGGKPKLFFIQACGGEQKDHGFEVASTSPEDESPGSNPEPDATPFQEGLRTFGQLDAISSLPTPSDIFVSYSTFPGFVSWRDPKSGSWYVETLDDIFEQWAHSEDLQSLLLRVANAVSVKGIYKQMPGCFNFLRKKLFFKTSASRA | Increased | –
D315A-D330A (protein) GFGDVGALESLRGNADLAYILSMEPCGHCLIINNVNFCRESGLRTRTGSNIDCEKLRRRFSSLHFMVEVKGDLTAKKMVLALLELARQDHGALDCCVVVILSHGCQASHLQFPGAVYGTDGCPVSVEKIVNIFNGTSCPSLGGKPKLFFIQACGGEQKDHGFEVASTSPEDESPGSNPEPAATPFQEGLRTFDQLAAISSLPTPSDIFVSYSTFPGFVSWRDPKSGSWYVETLDDIFEQWAHSEDLQSLLLRVANAVSVKGIYKQMPGCFNFLRKKLFFKTSASRA | – | dead
D327K (protein) GFGDVGALESLRGNADLAYILSMEPCGHCLIINNVNFCRESGLRTRTGSNIDCEKLRRRFSSLHFMVEVKGDLTAKKMVLALLELARQDHGALDCCVVVILSHGCQASHLQFPGAVYGTDGCPVSVEKIVNIFNGTSCPSLGGKPKLFFIQACGGEQKDHGFEVASTSPEDESPGSNPEPDATPFQEGLRTFKQLDAISSLPTPSDIFVSYSTFPGFVSWRDPKSGSWYVETLDDIFEQWAHSEDLQSLLLRVANAVSVKGIYKQMPGCFNFLRKKLFFKTSASRA | Increased | –
L329G (protein) GFGDVGALESLRGNADLAYILSMEPCGHCLIINNVNFCRESGLRTRTGSNIDCEKLRRRFSSLHFMVEVKGDLTAKKMVLALLELARQDHGALDCCVVVILSHGCQASHLQFPGAVYGTDGCPVSVEKIVNIFNGTSCPSLGGKPKLFFIQACGGEQKDHGFEVASTSPEDESPGSNPEPDATPFQEGLRTFDQGDAISSLPTPSDIFVSYSTFPGFVSWRDPKSGSWYVETLDDIFEQWAHSEDLQSLLLRVANAVSVKGIYKQMPGCFNFLRKKLFFKTSASRA | Increased | –
D330A-Y153A (protein) GFGDVGALESLRGNADLAAILSMEPCGHCLIINNVNFCRESGLRTRTGSNIDCEKLRRRFSSLHFMVEVKGDLTAKKMVLALLELARQDHGALDCCVVVILSHGCQASHLQFPGAVYGTDGCPVSVEKIVNIFNGTSCPSLGGKPKLFFIQACGGEQKDHGFEVASTSPEDESPGSNPEPDATPFQEGLRTFDQLAAISSLPTPSDIFVSYSTFPGFVSWRDPKSGSWYVETLDDIFEQWAHSEDLQSLLLRVANAVSVKGIYKQMPGCFNFLRKKLFFKTSASRA | – | dead
F406L (protein) GFGDVGALESLRGNADLAYILSMEPCGHCLIINNVNFCRESGLRTRTGSNIDCEKLRRRFSSLHFMVEVKGDLTAKKMVLALLELARQDHGALDCCVVVILSHGCQASHLQFPGAVYGTDGCPVSVEKIVNIFNGTSCPSLGGKPKLFFIQACGGEQKDHGFEVASTSPEDESPGSNPEPDATPFQEGLRTFDQLDAISSLPTPSDIFVSYSTFPGFVSWRDPKSGSWYVETLDDIFEQWAHSEDLQSLLLRVANAVSVKGIYKQMPGCFNLLRKKLFFKTSASRA | – | dead
D330A-Y153F (protein) GFGDVGALESLRGNADLAFILSMEPCGHCLIINNVNFCRESGLRTRTGSNIDCEKLRRRFSSLHFMVEVKGDLTAKKMVLALLELARQDHGALDCCVVVILSHGCQASHLQFPGAVYGTDGCPVSVEKIVNIFNGTSCPSLGGKPKLFFIQACGGEQKDHGFEVASTSPEDESPGSNPEPDATPFQEGLRTFDQLAAISSLPTPSDIFVSYSTFPGFVSWRDPKSGSWYVETLDDIFEQWAHSEDLQSLLLRVANAVSVKGIYKQMPGCFNFLRKKLFFKTSASRA | – | dead
F404A (protein) GFGDVGALESLRGNADLAYILSMEPCGHCLIINNVNFCRESGLRTRTGSNIDCEKLRRRFSSLHFMVEVKGDLTAKKMVLALLELARQDHGALDCCVVVILSHGCQASHLQFPGAVYGTDGCPVSVEKIVNIFNGTSCPSLGGKPKLFFIQACGGEQKDHGFEVASTSPEDESPGSNPEPDATPFQEGLRTFDQLDAISSLPTPSDIFVSYSTFPGFVSWRDPKSGSWYVETLDDIFEQWAHSEDLQSLLLRVANAVSVKGIYKQMPGCANFLRKKLFFKTSASRA | – | dead
D330A-T317E (protein) GFGDVGALESLRGNADLAYILSMEPCGHCLIINNVNFCRESGLRTRTGSNIDCEKLRRRFSSLHFMVEVKGDLTAKKMVLALLELARQDHGALDCCVVVILSHGCQASHLQFPGAVYGTDGCPVSVEKIVNIFNGTSCPSLGGKPKLFFIQACGGEQKDHGFEVASTSPEDESPGSNPEPDAEPFQEGLRTFDQLAAISSLPTPSDIFVSYSTFPGFVSWRDPKSGSWYVETLDDIFEQWAHSEDLQSLLLRVANAVSVKGIYKQMPGCFNFLRKKLFFKTSASRA | – | dead
D327R (protein) GFGDVGALESLRGNADLAYILSMEPCGHCLIINNVNFCRESGLRTRTGSNIDCEKLRRRFSSLHFMVEVKGDLTAKKMVLALLELARQDHGALDCCVVVILSHGCQASHLQFPGAVYGTDGCPVSVEKIVNIFNGTSCPSLGGKPKLFFIQACGGEQKDHGFEVASTSPEDESPGSNPEPDATPFQEGLRTFRQLDAISSLPTPSDIFVSYSTFPGFVSWRDPKSGSWYVETLDDIFEQWAHSEDLQSLLLRVANAVSVKGIYKQMPGCFNFLRKKLFFKTSASRA | Increased | –
F404S (protein) GFGDVGALESLRGNADLAYILSMEPCGHCLIINNVNFCRESGLRTRTGSNIDCEKLRRRFSSLHFMVEVKGDLTAKKMVLALLELARQDHGALDCCVVVILSHGCQASHLQFPGAVYGTDGCPVSVEKIVNIFNGTSCPSLGGKPKLFFIQACGGEQKDHGFEVASTSPEDESPGSNPEPDATPFQEGLRTFDQLDAISSLPTPSDIFVSYSTFPGFVSWRDPKSGSWYVETLDDIFEQWAHSEDLQSLLLRVANAVSVKGIYKQMPGCSNFLRKKLFFKTSASRA | – | dead
Q328K (protein) GFGDVGALESLRGNADLAYILSMEPCGHCLIINNVNFCRESGLRTRTGSNIDCEKLRRRFSSLHFMVEVKGDLTAKKMVLALLELARQDHGALDCCVVVILSHGCQASHLQFPGAVYGTDGCPVSVEKIVNIFNGTSCPSLGGKPKLFFIQACGGEQKDHGFEVASTSPEDESPGSNPEPDATPFQEGLRTFDKLDAISSLPTPSDIFVSYSTFPGFVSWRDPKSGSWYVETLDDIFEQWAHSEDLQSLLLRVANAVSVKGIYKQMPGCFNFLRKKLFFKTSASRA | Increased | –
Q328R (protein) GFGDVGALESLRGNADLAYILSMEPCGHCLIINNVNFCRESGLRTRTGSNIDCEKLRRRFSSLHFMVEVKGDLTAKKMVLALLELARQDHGALDCCVVVILSHGCQASHLQFPGAVYGTDGCPVSVEKIVNIFNGTSCPSLGGKPKLFFIQACGGEQKDHGFEVASTSPEDESPGSNPEPDATPFQEGLRTFDRLDAISSLPTPSDIFVSYSTFPGFVSWRDPKSGSWYVETLDDIFEQWAHSEDLQSLLLRVANAVSVKGIYKQMPGCFNFLRKKLFFKTSASRA | Increased | –
402GCFNF^406AAAAA (protein, UniProt P55211 1-416, looked up, variant G402A C403A F404A N405A F406A) MDEADRRLLRRCRLRLVEELQVDQLWDALLSRELFRPHMIEDIQRAGSGSRRDQARQLIIDLETRGSQALPLFISCLEDTGQDMLASFLRTNRQAAKLSKPTLENLTPVVLRPEIRKPEVLRPETPRPVDIGSGGFGDVGALESLRGNADLAYILSMEPCGHCLIINNVNFCRESGLRTRTGSNIDCEKLRRRFSSLHFMVEVKGDLTAKKMVLALLELAQQDHGALDCCVVVILSHGCQASHLQFPGAVYGTDGCPVSVEKIVNIFNGTSCPSLGGKPKLFFIQACGGEQKDHGFEVASTSPEDESPGSNPEPDATPFQEGLRTFDQLDAISSLPTPSDIFVSYSTFPGFVSWRDPKSGSWYVETLDDIFEQWAHSEDLQSLLLRVANAVSVKGIYKQMPAAAAALRKKLFFKTS | – | dead
402GCFNF^406YCSTL (Casp-2) (protein, UniProt P55211 1-416, looked up, variant G402Y F404S N405T F406L) MDEADRRLLRRCRLRLVEELQVDQLWDALLSRELFRPHMIEDIQRAGSGSRRDQARQLIIDLETRGSQALPLFISCLEDTGQDMLASFLRTNRQAAKLSKPTLENLTPVVLRPEIRKPEVLRPETPRPVDIGSGGFGDVGALESLRGNADLAYILSMEPCGHCLIINNVNFCRESGLRTRTGSNIDCEKLRRRFSSLHFMVEVKGDLTAKKMVLALLELAQQDHGALDCCVVVILSHGCQASHLQFPGAVYGTDGCPVSVEKIVNIFNGTSCPSLGGKPKLFFIQACGGEQKDHGFEVASTSPEDESPGSNPEPDATPFQEGLRTFDQLDAISSLPTPSDIFVSYSTFPGFVSWRDPKSGSWYVETLDDIFEQWAHSEDLQSLLLRVANAVSVKGIYKQMPYCSTLLRKKLFFKTS | – | dead
402GCFNF^406CIVSM (Casp-3) (protein, UniProt P55211 1-416, looked up, variant G402C C403I F404V N405S F406M) MDEADRRLLRRCRLRLVEELQVDQLWDALLSRELFRPHMIEDIQRAGSGSRRDQARQLIIDLETRGSQALPLFISCLEDTGQDMLASFLRTNRQAAKLSKPTLENLTPVVLRPEIRKPEVLRPETPRPVDIGSGGFGDVGALESLRGNADLAYILSMEPCGHCLIINNVNFCRESGLRTRTGSNIDCEKLRRRFSSLHFMVEVKGDLTAKKMVLALLELAQQDHGALDCCVVVILSHGCQASHLQFPGAVYGTDGCPVSVEKIVNIFNGTSCPSLGGKPKLFFIQACGGEQKDHGFEVASTSPEDESPGSNPEPDATPFQEGLRTFDQLDAISSLPTPSDIFVSYSTFPGFVSWRDPKSGSWYVETLDDIFEQWAHSEDLQSLLLRVANAVSVKGIYKQMPCIVSMLRKKLFFKTS | – | dead
